Target: HERV-E peptide … (SEQ ID NO: 1) presented by HLA-A11 on cells (human)
Assay: cell-based or functional assay

B1: HLA-A11 restricted HERV-E reactive T cell receptor (TCR α chain SEQ ID NO: 4, TCR β chain SEQ ID NO: 5) (TCR, V domains shown)
V domain 1: GIQVEQSPPDLILQEGANSTLRCNFSDSVNNLQWFHQNPWGQLINLFYIPSGTKQNGRLSATTVATERYSLLYISSSQTTDSGVYFCAVRGGADGLTFGKGTHLIIQP
V domain 2: DTEVTQTPKHLVMGMTNKKSLKCEQHMGHRAMYWYKQKAKKPPELMFVYSYEKLSINESVPSRFSPECPNSSLLNLHLHALQPEDSALYLCASSPPNEKLFFGSGTQLSVLE
  interferon-γ secretion by ELISA (FIG. 8): > 2 fold over background

From patent US20190231821A1 (US Dept. of Health and Human Services, published 2019)
